Test results reported in the Human Domainome abundance scans (Beltran et al. 2025).

B1: Integrator complex subunit 12, residues 155 to 213; numbered along this chain, Q96CB8 (parent)
chain: AMEMGLACVVCRQMMVASGNQLVECQECHNLYHRDCHKPQVTDKEANDPRLVWYCARCT
B2: RNA-binding E3 ubiquitin-protein ligase MEX3C, residues 325 to 391; numbered along this chain, Q5U5Q3 (parent)
chain: GQTTVQVRVPYRVVGLVVGPKGATIKRIQQQTHTYIVTPSRDKEPVFEVTGMPENVDRAREEIEMHI

Variants of: B1
Experiment: abundance fitness (aPCA) (normalised: wild type 0, dead -1); higher = more abundant; growth selection in yeast, the domain comes from the species named
Settings: Homo sapiens

Abundance fitness, by site and new letter:
C36: G -0.606 | I -0.691 | P -0.585
M14: D 0.101 | K 0.085
M15: I 0.028 | Q 0.115 | Y -0.025
Q40: V -0.063

Variants of: B2
Experiment: as above
Settings: Homo sapiens

Abundance fitness: each site, then its substitutions
I67: M -0.635 | W 0.289 | C -0.104 | G 0.026 | F -0.437 | E -0.235 | Y 0.476 | A 0.163 | P -0.773 | K -0.778 | R -0.515 | V 0.119 | T -0.023 | S -0.027
R60: A -0.694 | K -0.024 | C -0.025 | W -0.53 | V -0.006 | F -0.526 | T -0.557 | H -0.401 | L -0.098 | M -0.296 | E -0.739 | Q -0.639 | D -1.13 | I -0.026 | G -0.575 | P -0.651
D57: W -0.245 | Y -0.303 | V -0.143
M65: S 0.12 | F -0.264 | Q 0.225 | N 0.033 | L -0.114 | K 0.224 | D -0.223 | Y 0.366 | T 0.004 | I -0.099 | H 0.125 | A 0.142 | W -0.184 | P -0.699 | C -0.285 | G -0.049 | V -0.449 | R 0.216
A59: E -0.967 | K -0.671 | S -0.829 | R -0.762 | Q -0.802 | C -0.374 | M -0.313 | W -1.08 | P -0.854 | I -1.08 | T -0.929 | D -0.915 | L -0.886 | V -0.719 | H -0.859
E61: K 0.069 | M -0.161 | F -0.342 | P -0.85 | H 0.022 | Y -0.177 | A 0.014 | I -0.472 | N -0.36 | W -0.353 | T -0.037 | Q -0.023 | G -0.343 | V -0.17 | D -0.043 | S -0.089 | L -0.266
E62: Y -0.255 | S -0.373 | P -1.01 | H -0.602 | I -0.318 | K -0.126 | Q 0.034 | N -0.639 | G -0.679 | T -0.52 | C 0.054 | V -0.114 | A 0.025 | D -0.494 | M 0.132 | R -0.299 | L 0.115
H66: C 0.089 | W -0.079 | T 0.198 | D -0.625 | Y 0.11 | L 0.282 | V 0.286 | F 0.135 | G -0.465 | Q 0.166 | K -0.039 | P -0.88 | I 0.404 | R 0.178 | S -0.336 | E -0.143
I63: M -0.772 | Q -0.863 | A -0.845 | N -0.094 | P -0.461 | L -0.412 | C -0.734 | W -0.768 | V -0.512 | S -0.894 | Y -0.748 | H -0.772 | G -0.899
R58: S -0.614 | K 0.067 | E -0.572 | M -0.409 | V -0.616 | I -0.954 | P -1.09 | T -1.1 | W -0.555 | F -0.519 | Q -0.304 | G -0.675 | N -0.434 | D -0.73 | C -0.36
E64: C -0.309 | S -0.281 | Y -0.271 | D -0.015 | W -0.179 | V -0.66 | F -0.029 | T -0.779 | M -0.006 | H -0.222 | P -0.435 | K -0.193 | G -0.606 | L 0.056
